The record followed here is a protein production outcome set (Wang et al. 2014).

This data set can be described thus: label from the status in PepcDB records.
For “MSRFMARIMVNGLNEPGTLAKVAQTVAGLDVNIRLLNTVRVAADFTEMMLEVEVWDLRQLNQLLAQMKELDCIATVRRLYELEHHHHHH”, the protein production result is “not failed”.
The same measure for “MSRGDKMLKFEIKARDGAGRIGKLEVNGKKIETPAIMPVVNPKQMVVEPKELEKMGFEIIITNSYIIYKDEELRRKALELGIHRMLDYNGIIEVDSGSFQLMKYGSIEVSNREIIEFQHRIGVDIGTFLDIPTPPDAPREQAVKELEITLSRAREAEEIKEIPMNATIQGSTYTDLRRYAARRLSSMNFEIHPIGGVVPLLESYRFRDVVDIVISSKMALRPDRPVHLFGAGHPIVFALAVAMGVDLFDSASYALYAKDDRYMTPEGTKRLDELDYFPCSCPVCSKYTPQELREMPKEERTRLLALHNLWVIKEEIKRVKQAIKEGELWRLVDERARSHPKLYSAYKRLLEHYTFLEEFEPITKKSALFKISNESLRWPVVRRAKERAKSINERFGELVEHPIFGRVSRYLSLTYPFAQSEAEDDFKIEKPTKEDAIKYVMAIAEYQFGEGASRAFDDAKVELSKTGMPRQVKVNGKRLATVRADDGLLTLGIEGAKRLHRVLPYPRMRVVVNKEAEPFARKGKDVFAKFVIFADPGIRPYDEVLVVNENDELLATGQALLSGREMIVFQYGRAVKVRKGVE”: “not failed”; for “MSRGHCILAHGFESGPDALKVTALAEVAERLGWTHERPDFTDLDARRDLGQLGDVRGRLQRLLEIARAATEKGPVVLAGSSLGSYIAAQVSLQVPTRALFLMVPPTKMGPLPALDAAAVPISIVHAWHDELIPAADVIAWAQARSARLLLVDDGHRLGAHVQAASRAFAELLQSL”: “not failed”; for “MSRIASHTQGLFADLREWIDLRVDLAILEMEERLDAFKNDLALGLTVAVFAFFAAFFSLTTVALGVGWLLGHPFWGFLAVSVALILIIVTLRVTKPALMPPSNLFESLRGERAASDEGPSSRPASAAVDEADGAEAQASAPDVKA”: “failed”.
In the case of “MSRILITGAAGMVGRALLEELDEHDVFATDLVPPKATGAVTWLPMDVTTDDPDRIVGEVRPQVVIHLASIVTPGVARAVAHRVDVGGTRAVLDACLAHGVRRLVVTSSGAAYGYHADNPMPLRESDPLRGNPEFAYADHKRQVEEILAEARQSAPQLEQVVLRVGTVLGAGTENQITALFRKPRLLAVRGSESPFVFIWTRDLARILARAAGEGPAGIYNVAGDGAMGVSDLARALGKPVLRLPALTLKAALALARPLGLSRYGPEQVRFLQYRPVLANDALKQVFGYVPELASAEVFDLWRREAGL”, the protein production entry is given as “failed”.
The same measure for “MSRILVLAVVALALLNPLFLVVHSLPTGVSAHDGPIYTNAVLGYANITSLQAYNSSFNVPYGASLQLNVVLEATSTNGNTYYFWLQNVAQFVTNESLMCFTDNVWNYTTATAEISNVTGNGGIGFTYNILFGHPTFYGYSTEPMPYRFPLALYLLINESLSSNGVIVNFIYVVLQNGSLVPPHPVTYDSVFIPVPDPQSAYIIVNDSLTPSAVVLNFTLFYQEALGNLMDTELVWGGYENGEFTTFTQMSSYLGLFYLSGNSFVPFSTVYTYGNDTAESTGDLYVSIASNGDAYVTVGTPDYGLLTDSFHPYIPGFTFVNVTSKVPFLVNGTYTNSFVGYVVHPVTITFYRNYTVNSSSYAVLDYPSQSLTITPSNTFKNVIITPQYTYYYKVIVNSSRPLLLNISGKETLTNGTLWLPQGTSVSLVNNTYYVSSGERFVVNNTYPNLPLTVENPTTITVTLEKQFKLTINSPIPLLLSINGKSRLFNGTTWVLQGSAVELVNNTYYVSSGERYVVSSISPSTPIEVSGPMNISVELVKEYKVEIVSSQPVMATIKGETEPVNGTAWLPQGSVIHLTANLPVYLKGYFVGTYNASPGEQVTINGPIYEKLVVQLNYTFLEELVIPIVTAVVIVVAITRRR”: “failed”.
As to “MSRQPLSREDTAILVPALNEALRIREVVTDALTYCSHVIVIDDGSDDGTAECIAGMPVTLIRHPQRMGKGAALRSGFAQAQRLGMRAVMTMDGDGQHKAADFPRLLAAANRHPGCVIIGARMRKRATQPTIRRIGNDFGDWGIAWGCGFRLIDSQSGQRLYPASVFTLPNVPGEGFVFEAQLLISAARQAGARVVAVPIETRYAGTSPGTFRKSHFRLVRDLWNITSHVVKQVWAYGHVWREYRRVRANPVIVDDPDGEFATVPAVTKSNHSSLEHHHHHH”, the protein production entry was “failed”.
The same measure for “MSRRTVSLTVLALVLALLILVAPDVLLVIFAGVLFGVFLSAGGGLVQRVTGLQRGAGIALFIVLVLLALTGAFLAFAPAMFEQADALARQLPPAFEDLRDRISAYSWGPTLLSRLAPSRLLSSDGGFASTAVSATFGALGNVVIILFIGLYTAVDPGLYRRGLRALLAPPLRPRGDEVLAIADGTLRGWLGGQIISMTVVGVLTWLGLWLIGIPLAFILGLIAALLTFIPNIGPVLSAVPALLLALPEGAEQVGLVLAVFLTVQTFESYLVTPLIQKERVALPPALIISAQLLMGVLFGLMGLLLATPLAALALALVREVYVHDYLEEGPAKAQGPDRAD”: “failed”; for “MSRSPRYTNFILIAVMLGALLPAAGCLEEHEVASAGLSSATMSVNLTYYTEQLPPYNYMENSMLQGLSVDLLEEITEKMGKKVTREEVHLVPWTEGYQAALNGNNTVLFSMARSPEREQFFKWAGPIYSDRYVLFAKRDRGITIKNPEDLKGYRIGVIADDIATRQLLDIGVNQSQIAPESNVSAIIAGLENGDIDLWACPEDAGRYFTEELTGSYYSYTVVYQLETQDLYYAFSKDVPDSVVQSFQQALDAVKREKDVEGISTYDRILGKYIPSIGLARLNYLTEEWAPFNYQEDGNVTGISVEILEAVFKNIGVNRSRADVRIVPLAEGFQIAQNNTSTVLFSIVRTPEREPFYKWAGPFTRANFVLYAPVSSNITISSPKDLNQYRIGAIRASIENDLLASQGVNESQIINGQTPEDLFRMLEEGQIDLWATGDLAGRHQMLRTAEDPNAYEIVYTLSENDFYYIFSKDVPDTLVSAFQQALDTVRDQRDEQGVSDYERIIYRNLGVGCAPQTFTDDTVMELVNTTVKAIEKNASDTFRRINAGEAPYRDSKDPGLYAFVYDTNLTIVAHADNIQLVGTNFRGKTDVTGKPFRDEILEGALKNGTGSVDYVYMHPVQTNLYYKTAYYRLTRGSDGNSYIVCSGNYKLCQNQSEAMPANNSTASPEELAAFVEKAFEYAHENGQEVALREFNNQAGQFVDGKFYIFAYDTNGTTLALPFQPEIIGTKRWNVTDTNGTLFIQDLVDTAQSGGGFVRYFYADPADNFTVKQKLSYVMMVNQSWIIGSGIYDPQKDSAIVRAGTDPQVRENLKSFVGEAIEYANTNGKDTAIEEFNDRNGAFVRGNLYIYAFDYNGTTLALPYQAQLIGTNLSELQDPYGVNYTKVEIFMAQQGGGFLFYHYYNPARNMTLEPKMSYVQKVDDTWWLGAGTYTEDLNRITKRD”: “failed”; for “MSRTNINFNNKRTELANKIWDIFIANGYENTTLAFIINKLGISKGALYHYFSSKEECADAAIENRVAFFSNEVLKESEEGLNSIERLKKILLAGIKITSVNEQVKEINSPSNKIFHQKLMVAIIKYFAPIYADIISQGNEEGVFKVKYPLETAEIILTLSHFYLDEDLFKWKKEDMSLKLTAFKETLIKILDADEDTFDFIK”: “not failed”.
The same measure for “MSRTTASTCMGERRQSSLKRLAIFRPVQRLPARELLPLDGDRWLVAAQRREPERGPNGLGNGQRRPVQFRREVPGEHDVCIHIHRAVGFEDVIHDEPHPVGGLPFDDIRCGHIYALLGQSIGYVRVVSDADLDDGIDRRQSVDKRAGGVGHVVQFMRCGRICVPMHVDIVPVGEVSAQVKREASDGLRSVYDCEVSMHEPQSIPAGAYDGDRDQYRAEEFIDLARRVGSGGKNIAITPKDLFYRRRNYVFGLAYLGGSGSVISTYRLQTSSDGGFSNRSAGEIFSQRVRKEVVHEVGHTLGLEHCDNKRCVMNFSPTVRQVDVKEVSLCGSCQRNVL”: “failed”.
“MSRVHNRALSAAELQSFGDELDAIRARVLSQVGAADARYIRRIVAAVRWTGVAGRALLFLGAFVHSVLIPAWIAGVLLLALSKILENMELGHNVMHGQYDWMGDPQLNGNTYEWDIVATGDNWRKTHNFKHHTYTNVRGMDDDIGYGLLRIFPEQRWRPFYLLQPFIAVVFALLFEWGVAIQDLRLGRWFAGKMKAAELRASFLPVGRKMGRQMLKDYIVFPLLAGPFFLTVLLGNLAANVLRSIWTFVIIFCGHFTADAEVFPKESIRNESRGHWYLRQLRGSSNLTGGKLMNVLSGNLSHQIEHHFYPDLPANRYAQIAVEVKQVCARYGQHYNTGSLPRQFGQVMWRIVRHAFPSRPKPVRQGSGALQSA”: the protein production entry is listed as “failed”.
The same measure for “MSSAKSARYNRFSGGPANLPASDSSGTRMETTFGPTFSTVTTITKAADGTSTYKQHRRTPSSSSTLAYSPRDEEDGMPPINTPRRSDSAISVRSLHSESSMSLRSTFSLPEEEEEPEPLVFAEQPSVKLCCQLCCSVFKDPVITTCGHTFCRRCALKSEKCPVDNAKLTVVVNNIAVAEQIGELFIHCRHGCRAAGTGKPGVFEVDPRGCPFTIKLSARKDHESSCDYRPVRCPNNPSCPPLLKMNLEAHLKECEHIKCPHSKYGCTFIGNQDTYETHLETCRFEGLKEFLQQTDDRFHEMHVALAQKDQEIAFLRSMLGKLSEKIDQLEKSLELKFDVLDENQSKLSEDLMEFRRDASMLNDELSHINARLNMGILGSYDPQQIFKCKGTFVGHQGPVWCLCVYSMGDLLFSGSSDKTIKVWDTCTTYKCQKTLEGHDGIVLALCIQGCKLYSGSADCTIIVWDIQNLQKVNTIRAHDNPVCTLVSSHNMLFSGSLKAIKVWDIVGTELKLKKELTGLNHWVRALVAAQSYLYSGSYQTIKIWDIRTLDCIHVLQTSGGSVYSIAVTNHHIVCGTYENLIHVWDIESKEQVRTLTGHVGTVYALAVISTPDQTKVFSASYDRSLRVWSMDNMICTQTLLRHQGSVTALAVSRGRLFSGAVDSTVKVWTC”: “failed”; for “MSSAQFDHVTVIKKSNVYFGGLCISHTVQFEDGTKKTLGVILPTEQPLTFETHVPERMEIISGECRVKIADSTESELFRAGQSFYVPGNSLFKIETDEVLDYVCHLEG”: “not failed”.
As for “MSSATASIKLSNGVEMPVIGLGTWQSSPAEVITAVKTAVKAGYRLIDTASVYQNEEAIGTAIKELLEEGVVKREELFITTKAWTHELAPGKLEGGLRESLKKLQLEYVDLYLAHMPAAFNDDMSEHIASPVEDVWRQFDAVYKAGLAKAVGVSNWNNDQISRALALGLTPVHNSQVELHLYFPQHDHVDFCKKHNISVTSYATLGSPGRVNFTLPTGQKLDWAPAPSDLQDQNVLALAEKTHKTPAQVLLRYALDRGCAILPKSIQENRIKENFEVFDFSLTEEDIAKLEESKNSQRLFLQDFMTGHPEDAFAAERK”, the protein production result is “not failed”.
Take “MSSDHRDQYYWRAKRDQFRSRAAYKLEFLIERYGIIKDGQAVLEIGSSPGGWTQVLVDHGCRVVAVDIQPMDEIPGVIFLKLNILREDAAERIREEMARSLVQRFDVVLSDAMAKTSGIRSSDHAASVMIGNAVMKIAMDTLRRGGVAVVKQFQGDMTGDFIKNWGHYFRDHRITKPPASRKESSEVYIIFYGFSGKETDNSVQG”: the protein production result is recorded as “failed”.
The same measure for “MSSEVQKGPRALTVGRGDGRIWGMSSAERLARIYRRLDLVETPAVDLSHPVVAVDAGWVFDESLIKALAGREGAVLVDDAGRAVAVHAPADLAYAASEALAAGNDPAGLDPRFTRLTALELGSAYNSALRKREPPVLERLTPETVRAVEKRLFQGSYKGVTDFVTKYVWPAPARVVTRWCALAKMTPNQVTFIGFVMVLAATWLFWHGHFGWGLVCAWIMTFLDTVDGKLARVTLTSSKWGNVFDHGIDLVHPPFWWWAWFVGVYAVGQEIPYAALSLAIVVGGYVAQRVEEGIFLALFKLEMHAWRPFDSFFRLITARRNPNLILLTGCAMVGRPDLGFTLVAIWTAVCFVVHAIQILQGLMAPKGSIQSWLAK”: “failed”.
